Molecular target: T1, OB-R (Homo sapiens, UniProt P48357)
T1 construct: After confirming via Western that the primary EEC and ESC and endometrial cell lines utilized herein had OB-R; endogenous in cells; host or cells: primary human EEC and ESC; Ishikawa (ECACC 9832301) and HES cell lines
T1 sequence (P48357 22-1165): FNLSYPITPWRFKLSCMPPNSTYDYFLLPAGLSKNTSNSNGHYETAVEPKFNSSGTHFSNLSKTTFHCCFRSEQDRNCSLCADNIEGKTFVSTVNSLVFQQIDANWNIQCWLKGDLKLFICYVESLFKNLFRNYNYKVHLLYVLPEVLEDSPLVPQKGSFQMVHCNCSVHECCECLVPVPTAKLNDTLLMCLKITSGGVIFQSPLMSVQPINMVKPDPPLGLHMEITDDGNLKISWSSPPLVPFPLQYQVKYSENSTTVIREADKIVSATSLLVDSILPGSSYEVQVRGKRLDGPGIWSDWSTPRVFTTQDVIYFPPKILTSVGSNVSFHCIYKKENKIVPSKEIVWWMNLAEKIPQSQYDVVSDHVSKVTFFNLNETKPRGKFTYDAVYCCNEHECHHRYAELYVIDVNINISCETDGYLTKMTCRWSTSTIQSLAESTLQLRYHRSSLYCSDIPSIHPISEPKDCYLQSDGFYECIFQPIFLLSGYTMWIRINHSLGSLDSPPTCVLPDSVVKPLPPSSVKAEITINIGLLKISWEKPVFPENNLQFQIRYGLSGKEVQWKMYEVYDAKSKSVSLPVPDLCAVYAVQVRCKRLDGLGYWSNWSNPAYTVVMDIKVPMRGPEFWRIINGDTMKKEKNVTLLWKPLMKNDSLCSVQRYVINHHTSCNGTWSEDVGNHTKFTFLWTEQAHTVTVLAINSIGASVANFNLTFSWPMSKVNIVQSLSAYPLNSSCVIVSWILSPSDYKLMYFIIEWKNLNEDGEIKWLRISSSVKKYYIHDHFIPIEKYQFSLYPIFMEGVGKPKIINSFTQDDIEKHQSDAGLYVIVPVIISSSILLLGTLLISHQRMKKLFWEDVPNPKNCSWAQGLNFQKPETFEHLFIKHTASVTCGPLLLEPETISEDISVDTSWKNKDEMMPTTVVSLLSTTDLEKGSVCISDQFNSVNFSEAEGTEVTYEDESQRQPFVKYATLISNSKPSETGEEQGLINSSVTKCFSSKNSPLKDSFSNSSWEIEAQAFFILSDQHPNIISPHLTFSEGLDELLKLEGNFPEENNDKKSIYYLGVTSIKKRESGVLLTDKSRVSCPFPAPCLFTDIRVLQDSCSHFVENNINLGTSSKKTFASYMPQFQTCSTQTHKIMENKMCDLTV
Experiment: LIF-R levels in human endometrial cells (immunoprecipitation/Western blot)
Assay type: cell-based
Settings: for effect on leptin-induced increase of LIF-R levels: leptin 62 nM, peptide 300 nM, 24 h; for leptin-induced expression of LIF-R: leptin 3-62 nM
Method: Primary human endometrial cells (ESC and EEC) were cultured for 5-9 days in DMEM-F12 medium containing 5% fetal bovine serum (FBS), 5 μg/ml insulin, 1% amphopthericin B, 100 μg/ml streptomycin and 100 U/ml penicillin until they were 80% confluent. Two types of endometrial epithelial cell lines, HES (originally derived from a benign proliferative endometrium) and Ishikawa (human endometrial epithelial adenocarcinoma, ECACC 9832301, Wiltshire, England) were cultured under the same conditions described above. The cells were washed twice with 100 mM phosphate saline buffer (PBS), pH 7.2 and cultured for additional 2 days in the same medium but without FBS (basal medium). Cells were washed as described before and cultured in basal medium containing leptin (0, 3, 10 or 62 nM) or IL-1β (0.6, 3 and 10 nM).
The anti-OB-R antibody (10 and 20 μg/ml) and LPA-2, a specific inhibitor of OB-R (3, 120, 300 nM or 30 μM) were used to assess whether leptin-induced effects were regulated primarily by the OB-R. Non-specific species-matched IgGs to the OB-R antibody and a scrambled version of LPA-2 (LPA-2Sc) served as negative controls (Gonzalez and Leavis, Endocrine 21: 185-195 (2003)). Inhibitors of IL-1R were used (monoclonal antibody anti-IL-1R tl and IL-1Ra) to assess whether leptin activated IL-1 induced signaling pathways or just activated similar components responsible for LIF/LIF-R expression. Treatment with the cytokine, inhibitor or the two combined was implemented for 5, 15, 30 and 60 min, and 24 and 48 h. The cells were prepared for Western blot analysis. The conditioned media was collected, lyophilized and stored at −80° C. until analysis for LIF, IL-1β and IL-1Ra by ELISA could be performed. Duplicate wells were run for each treatment and the experiments repeated at least three times with different cell preparations.
Endometrial cells were washed with ice-cold PBS and lysed by homogenization on ice with lysis buffer A [[…] Tris, pH 7.4, containing 137 nM NaCl, 2 mM EDTA, 10% glycerol, 50 mM β-glycerophosphate, 1% Nonidet P-40 and a mixture of proteases and phosphatase inhibitors composed of 100 μM antipain, 0.1 mg/ml trypsin inhibitor, protease inhibitor cocktail 1:50 (Sigma), 50 nM NaF, 2 mM phenyl-methylsulfonyl fluoride, and 2 mM sodium orthovanadate]. Cellular lysates were centrifuged at 2400 g at 4° C. for 10 min. For nuclear lysates the cells were scraped from the culture plates and homogenized with lysis buffer B (10 nM Tris, pH 7.4, 0.25 M sucrose, 0.1 mM EDTA containing the same mixture of protease and phosphatase inhibitors as buffer A). Protein concentrations were determined using the Bradford protein assay (BioRad Laboratories Inc., Hercules, Calif.).
30 μg of protein from nuclear or cellular lysates were incubated in ependorf tubes containing 0.5 μg of primary antibodies (anti-LIF-R, OB-R, STAT3 and p-STAT3 diluted in buffer A) for 2 h at 4° C. under constant stirring. The immuno-complexes were incubated with 20 μl of Protein G-Agarose (Amersham Pharmacia Biotech) diluted 1:1 with buffer A for a 2 additional hours under constant stirring. The beads were centrifuged for 1 min at 1000 g and washed with buffer A containing 0.5 M NaCl followed by a final wash with buffer A.
Cellular lysates and their immunoprecipitates containing 10-30 μg of protein plus Laemmli buffer (1:1) were incubated at 95° C. for 5 min. Electrophoresis was performed at 220 V for 5 min followed by 130 V for 45 min (BioRad, electrophoresis apparatus) on 7.5% (for STAT3, p-STAT3, LIF-R and IL-1R tl) and 10% (for OB-R) SDS-PAGE gels. Nuclear lysates were also used to detect p-STAT3. Electroblotting onto 0.2 μm nitrocellulose membranes was performed at 22 V overnight at 4° C. in 48 nM Tris-39 nM glycine buffer containing 0.037% SDS and 20% methanol. […]

In the case of “SRNVIQISNDLENLRDLLHVLAFSKS [LPA-2, 26 amino acid peptide, residues 70-95 of helix III of the human leptin molecule; leptin peptide antagonist]”, the “effect on leptin-induced increase of LIF-R levels” value (Ishikawa cells) is reported as “reduced the leptin-induced increase”.
“leptin: human recombinant leptin (R&D Systems), OB-R ligand used as stimulus” was tested, and the “leptin-induced expression of LIF-R” value (HES cells) was 1.3-2 fold, the “leptin-induced expression of LIF-R” value (Ishikawa cells) was 1.5-3 fold and the “leptin-induced expression of LIF-R” value (primary EEC) was 1.7-8 fold. The “leptin-induced expression of LIF-R” value (primary ESC) was 1.4-3.2 fold.
In the case of “VAEVLNRSDLIQRISFSLDLNNSKLH [LPA-2Sc, scrambled version of LPA-2, negative control, reference compound]”, the “effect on leptin-induced increase of LIF-R levels” value (Ishikawa cells) is reported as “had no effect on LIF-R levels”.

From patent US8058228B2, “Leptin peptide antagonists” (Boston Biomedical Research Institute, priority 2004, dated 2011)
